Measurements reported in PMC10160976 (Proceedings of the National Academy of Sciences of the …, 2023).

T1: human LPL^S132A/R297A (inactive lipoprotein lipase mutant) (human, UniProt P06858 28-475, S132A | R297A)
T1 sequence (looked up): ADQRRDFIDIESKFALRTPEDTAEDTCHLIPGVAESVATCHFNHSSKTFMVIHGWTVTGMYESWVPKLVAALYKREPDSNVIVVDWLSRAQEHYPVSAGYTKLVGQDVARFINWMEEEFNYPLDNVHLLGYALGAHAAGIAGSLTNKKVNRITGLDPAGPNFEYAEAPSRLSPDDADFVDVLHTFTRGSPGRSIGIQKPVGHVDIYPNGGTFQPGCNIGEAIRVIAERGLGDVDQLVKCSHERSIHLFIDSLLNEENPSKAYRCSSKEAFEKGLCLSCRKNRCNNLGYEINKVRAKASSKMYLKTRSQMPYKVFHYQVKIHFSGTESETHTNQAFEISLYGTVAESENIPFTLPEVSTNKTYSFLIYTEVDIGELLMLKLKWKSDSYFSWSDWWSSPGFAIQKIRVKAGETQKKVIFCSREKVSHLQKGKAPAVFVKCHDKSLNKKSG


Assays:
[1] = target: T1, human LPL^S132A/R297A (inactive …); test: cell-based or functional assay
[2] = target: T1, human LPL^S132A/R297A (inactive …); test: HDX-MS

| Binder | onset of LPL aggregation (turbidity, proxy for Tm) against APOC2^Q70E [1] | binding result [2] |
| --- | --- | --- |
| APOC2^wt (apolipoprotein C2, N-terminal 6xHis-tag) (natural protein, UniProt P02655 23-101, looked up) TQQPQQDEMPSPTFLTQVKESLSSYWESAKTAAQNLYEKTYLPAVDEKLRDLYSKSTAAMSTYTGIFTDQVLSVLKGEE | > 20 °C | – |
| soluble truncated human GPIHBP1 (residues 1 to 131) (domain or fragment, UniProt Q8IV16 21-151, looked up) QTQQEEEEEDEDHGPDDYDEEDEDEVEEEETNRLPGGRSRVLLRCYTCKSLPRDERCNLTQNCSHGQTCTTLIAHGNTESGLLTTHSTWCTDSCQPITKTVEGTQVTMTCCQSSLCNVPPWQSSRVQDPTG | – | binds |
